Source: patent CN101899115A

Key:
CD3 (on Jurkat cells) [1] = molecular target: CD3 (on Jurkat cells) (UniProt P07766); assay: FACS, HIT3a alone on Jurkat cells, FITC anti-mouse IgG
CD19 (on Raji cells) [2] = molecular target: CD19 (on Raji cells) (UniProt P15391); assay: FACS, HIT19a alone on Raji cells, FITC anti-mouse IgG
CD3 (on Jurkat cells) [3] = molecular target: CD3 (on Jurkat cells) (UniProt P07766); assay: FACS competition on Jurkat cells: ds-Diabody mixed with competitor HIT3a, HIT3a detected with FITC anti-mouse IgG
CD19 (on Raji cells) [4] = molecular target: CD19 (on Raji cells) (UniProt P15391); assay: FACS competition on Raji cells: ds-Diabody mixed with competitor HIT19a, HIT19a detected with FITC anti-mouse IgG

Molecule: 抗CD3鼠源性单克隆抗体HIT3a (antibody)
- 细胞结合阳性率 (CD3 (on Jurkat cells) [1]): 100%

Molecule: 抗CD19鼠源性单克隆抗体HIT19a (antibody)
- 细胞结合阳性率 (CD19 (on Raji cells) [2]): 100%

B1: 二硫键稳定的抗CD3-抗CD19微型双功能抗体 (disulfide-stabilized anti-CD3/anti-CD19 diabody) (bispecific antibody)
chain 1: ADIELTQSPAIMSASPGEKVTMTCSASSSVSYMNWYQQKSGTSPKRWIYDTSKLASGVPARFSGSGSGTSYSLTISGMEAEDAATYYCQQWSSNPFTFGCGTKLELKRGGGGSQVQLQQSGAELVRPGSSVKISCKASGYAFSSYWMNWVKQRPGQGLEWIGQIYPGDGDTNYNGKFKGQATLTADKSSSTAYMQLSGLTSEDSAVYFCARKTISSVVDFYFDYWGQGTTLTVSS
chain 2: DIVLTQSPKFMSTSVGDRVSSPAKASQNVGTNVAWYQQKPGQSPKPLIYSATYRNSGVPDRFTGSGSGTDFTLTITNVQSKDLADYFCQQYNRYPYTSGGGTKLEIKRGGGGSQVQLQQSGAELARPGASVKMSCKASGYTFTRYTMHWVKQRPGQCLEWIGYINPSRGYTNYNQKFKDKATLTTDKSSSTAYMELTRLTSEDSAVYYCARYYDDHYSLDYWGQGTTVTVSS
- 细胞结合阳性率 (HIT3a signal remaining with ds-Diabody present) (CD3 (on Jurkat cells) [3]): 51.1%
- 细胞结合阳性率 (HIT19a signal remaining with ds-Diabody present) (CD19 (on Raji cells) [4]): 63.3%
